Measurements reported in doi:10.1101/2020.03.05.978023.

Legend:
[1] = target: Human DND1 (Dead end protein homolog 1) RRM2 domain (139-217) (human); experiment: SEC
[2] = target: Human DND1 (Dead end protein homolog 1) RRM2 domain (139-217) (human); experiment: crystal structure

- stoichiometry N [1]: 2
- stoichiometry N [2]: 2
Substance: Human DND1 (Dead end protein homolog 1) RRM2 domain (139-217) (domain or fragment)
